Test system: MS2 coat protein
Assay: apparent KD of MS2 coat protein; designed switch direction (-1 OFF switch, 1 ON switch): -1; higher = weaker reporter binding
In short: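 Designed RNA switches sharing common flanks were transcribed on Illumina chips by stalled E. coli RNA polymerase. They were titrated with SNAP-549-labelled MS2 coat protein, from 0.7 or 1.5 nM doubling to 3 µM, in Tris-HCl pH 7.5 buffer with KCl, MgCl2, BSA, DTT, tRNA and Tween-20. Titrations ran without input, with 200 uM small-molecule ligand, or with an oligonucleotide input. The apparent KD of each design is the median over its clusters, after curve-fitting of normalised cluster fluorescence.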

[1] = Eterna round: R95, input ligand: FMN 200 uM
[2] = Eterna round: R95, input ligand: microRNA oligo, concentration not stated
[3] = Eterna round: R95, input ligand: none
[4] = input ligand: microRNA oligo, concentration not stated

| Sequence | apparent KD of MS2 coat protein [1] | apparent KD of MS2 coat protein [2] | apparent KD of MS2 coat protein [3] | apparent KD of MS2 coat protein (input ligand: FMN 200 uM) | apparent KD of MS2 coat protein [4] | apparent KD of MS2 coat protein (input ligand: none) |
| --- | --- | --- | --- | --- | --- | --- |
| GAUUAUGCGAGCUUUAGGGACAUGAGGAUCACCCAUGUUCGUCUUAUUGAUCUAGGUGCACUGACAUACCUAAAUCU [JMF 89] (puzzle: Sensor v3, turn-off variant 1) | 28.5 nM | 37.9 nM | 29.8 nM |  |  |  |
| GAUUAUGCGAGCUUUAGGGACAUGAGGAUCACCCAUGUUCGUCUUAUUGGUCUAGAUGCACUGACAUACCUAAAUCU [JMF 79] (puzzle: Sensor v3, turn-off variant 1) | 15.9 nM | 19.1 nM | 16.3 nM |  |  |  |
| GAUUAUGCGAGCUUUAGGGACAUGAGGAUCACCCAUGUUCGUCUUAUUGGUCUAGGUACGCUAACAUACCUAAAUCU [JMF 4] (puzzle: Sensor v3, turn-off variant 1) | 22.6 nM | 37.4 nM | 23.4 nM |  |  |  |
| GAUUAUGCGAGCUUUAGGGACAUGAGGAUCACCCAUGUUCGUCUUAUUGGUCUAGGUACGCUGACAUACCUAAAUCU [JMF 101] (puzzle: Sensor v3, turn-off variant 1) | 20.9 nM | 32.2 nM | 23.7 nM |  |  |  |
| GAUUAUGCGAGCUUUAGGGACAUGAGGAUCACCCAUGUUCGUCUUAUUGGUCUGGGUACGCUAACAUACCUAAAUCU [JMF 5] (puzzle: Sensor v3, turn-off variant 1) | 34.3 nM | 46.7 nM | 37.2 nM |  |  |  |
| GAUUAUGCGAGCUUUAGGGACAUGAGGAUCACCCAUGUUCGUCUUGUUGAUCUAGGUACACUGACAUACCUAAAUCU [JMF 65] (puzzle: Sensor v3, turn-off variant 1) | 22 nM | 26.9 nM | 18.3 nM |  |  |  |
| GAUUGACAUGAGGAUCACCCAUGUGAGGAUAUCGGCCGGACCUUGUUAGCUUCCACCGCGAGAAGGCACAUCGG [Exclusion 1 V30] (puzzle: Exclusion 1) |  | 17 nM |  |  |  |  |
| GAUUGACAUGAGGAUCACCCAUGUGAGGAUAUCGGCCGGAUCUUGUUAGCUUCCAUCGCGAGAAGGCACAUAGG [Exclusion 1 V33] (puzzle: Exclusion 1) |  | 55.2 nM |  |  |  |  |
| GAUUGACAUGAGGAUCACCCAUGUGAGGAUAUCGGCUGGACCGUGUUGGCCUGCCUCUCGAGAAGGCGCAUAGG [Exclusion 1 V53] (puzzle: Exclusion 1) | 49.9 nM | 35.6 nM | 40.5 nM |  |  |  |
| GAUUGACAUGAGGAUCACCCAUGUGAGGAUAUCGGCUGGACCGUGUUGGCUUCCGUCGCGAGAAGGCGCAUAGG [Exclusion 1 V42] (puzzle: Exclusion 1) | 61 nM | 43.5 nM | 46.4 nM |  |  |  |
| GAUUGAGAGCAGGAUAUCUUAGAAAUGUAUGAAAGAGAAGGGCUCACAUGAGGAUCACCCAUGUGGUCCUAGAU [JL Dibiri mod 17] (Eterna round: R96, puzzle: Exclusion 6) |  |  |  | 162 nM | 17.9 nM | 25.4 nM |
| GAUUGAGAGCAGGAUAUCUUAGAAAUGUAUGAAAGAGAAGGGCUCACAUGAGGAUCACCCAUGUGGUCCUAGAU [JL Dibiri mod 17] (puzzle: Exclusion 6) | 244 nM | 22.8 nM | 27.5 nM |  |  |  |
| GCAAGCUUUUUGGUUUUCAACAUGAGGAUCACCCAUGUUCGUCUUAUACCCGGGCCCGGGCGGUGCCCGGGCCCGGG [-40, -68 kcal, A 14%] (Eterna round: R97, puzzle: Sensor, turn-off variant 1) |  |  |  | 18.2 nM |  | 21.7 nM |
| GCACGGAAUGUAGGAUAUUAGUGCGAUUAGCACUGAGAAGGACAUGAGGAUCACCCAUGUUCCUCAAUAAUAAACCUUCCGUGC [Eli exng1 - 044] (Eterna round: R96, puzzle: Exclusion NG 1) |  |  |  | 13 nM | 10.2 nM | 13.3 nM |
| GCACGGAGUGUAGGAUAUCUGUGCGAUUAGCUCAGAGAAGGACAUGAGGAUCACCCAUGUGUGUUCCAAUAAUAAAAUCCGUGC [Eli exng1 - 063] (Eterna round: R96, puzzle: Exclusion NG 1) |  |  |  | 1500 nM | 270 nM | 329 nM |
| GCACGGAUUGUAGGAUAUCUGUGCGAUUAGCUCAGAGAAGGACACAUGAGGAUCACCCAUGUUACCUCAAUUAGCCUUCCGUGC [Eli exng1 - 030] (Eterna round: R96, puzzle: Exclusion NG 1) |  |  |  | 21.7 nM | 14.9 nM | 20 nM |
| GCACGGUUGGUAGGAUAUCCUUGCGAUUAGCAAGGAGAAGGACCACAUGAGGAUCACCCAUGUACCUCAAUUGUCCUUCCGUGC [Eli exng1 - 026] (Eterna round: R96, puzzle: Exclusion NG 1) |  |  |  | 18.5 nM | 13.9 nM | 19.3 nM |
| GCAGAAUGAGUUAGGAUAUGAUGAUUAUUCGGAAAUCAGAAGGAACUUGAGGAUCACCCAAGUAAAGAUAGGGU [JR_BMEx4_Sub063] (Eterna round: R97, puzzle: Brourd's mod of Exclusion 4) |  |  |  | 361 nM |  | 221 nM |
| GCAGAGCAAGGAUAUACAUGAGGAUCACCCAUGUAAUCUGAAAGGAUUGUAUGGCUCUGUAGAAGGUGCGAAAA [Ederxein] (Eterna round: R97, puzzle: Exclusion 3) |  |  |  | 41.9 nM |  | 22.7 nM |
| GCAGCAAAUUCCAUUAAAACCACAUGAGGAUCACCCAUGUCUCAGGAUAUGGUCUGGAUUACAGGCCAGAAGGGAGAAAGCUGC [Eli exng3 - 055] (Eterna round: R96, puzzle: Exclusion NG 3) |  |  |  | 10.1 nM | 11.9 nM | 16.3 nM |
| GCAGCAACUCUAAUCAAAACCACAUGAGGAUCACCCAUGUCUCAGGAUAUGGUCUGGAUUACAGGCCAGAAGGGAGAAAGCUGC [Eli exng3 - 050] (Eterna round: R96, puzzle: Exclusion NG 3) |  |  |  | 13.3 nM | 10.6 nM | 19.4 nM |
| GCAGCAUAGUCCAAAUAGGACAUACAUGAGGAUCACCCAUGUCAGGAUAUGGUCUGGAUUACAGGCCAGAAGGGACGAAGCUGC [Eli exng3 - 005] (Eterna round: R96, puzzle: Exclusion NG 3) |  |  |  | 18 nM | 16.4 nM | 22.6 nM |
| GCAGCAUAGUUUACUAACUGUUACAUGAGGAUCACCCAUGUCUAGGAUAUGGUCUGGAUUACAGGCCAGAAGGAGACAAGCUGC [Eli exng3 - 034] (Eterna round: R96, puzzle: Exclusion NG 3) |  |  |  | 14.1 nM | 12.1 nM | 16.6 nM |
| GCAGGCGACUAGGCUCGUCUUAUUUUGAGAAGAUUGAAAACAUGAGGAUCACCCAUGUGUGUGGGAGAGUUGGAGUG [JR_SV3TOV2_Sub012] (puzzle: Sensor v3, turn-off variant 2) | 268 nM | 346 nM | 475 nM |  |  |  |
| GCAGGUUAAGUCAGGAUAUACCUAUGGAUACAUAGGUAGAAGGGACAUGAGGAUCACCCAUGUGCCUCGCCUGC [Fiskers BMX 4 - 58] (puzzle: Brourd's mod of Exclusion 4) |  | 15.4 nM |  |  |  |  |
| GCAGGUUAAGUCAGGAUAUACCUAUGGAUACAUAGGUAGAAGGGACAUGAGGAUCACCCAUGUUCCUCACCUGC [Fiskers BMX 4 - 21] (puzzle: Brourd's mod of Exclusion 4) |  | 13.9 nM |  |  |  |  |
| GCAGGUUAAGUCAGGAUAUACCUCUGGAAACAGAGGUAGAAGGGACAUGAGGAUCACCCAUGUUUCUCAUCUGC [Mod of Eli 3 - Jieux - Brourd's mod of Exclusion 4] (Eterna round: R97, puzzle: Brourd's mod of Exclusion 4) |  |  |  | 85.6 nM |  | 19.2 nM |
| GCAGUAUGAGUUAGGAUAUGAUGAUUUUUUUUAUUUCAGAAGGAACUUGAGGAUCACCCAAGUUAAGAUUUGGU [JR_BMEx4_Sub068] (Eterna round: R97, puzzle: Brourd's mod of Exclusion 4) |  |  |  | 45.6 nM |  | 24.6 nM |
| GCAGUGCGAGGAUAUACAUGAGGAUCACCCAUGUGAGAAUAAUAAGUGAGGAAGAAAAGUAGAAGGCGCGUUGG [Mat - Exclusion 3 - Mod of Salish D67] (puzzle: Exclusion 3) | 103 nM | 41.1 nM | 46.8 nM |  |  |  |

Source: the supplement of paper PMC9170038
